Measurements: article PMC3829993

Tests used:
purified protein [1] = substrate: NC(=O)C1=CN([C@@H]2O[C@H](COP(=O)(O)OP(=O)(O)OC[C@H]3O[C@@H](n4cnc5c(N)ncnc54)[C@H](OP(=O)(O)O)[C@@H]3O)[C@@H](O)[C@H]2O)C=CC1; assay: purified protein; settings: varied: cofactor
purified protein [2] = substrate: NC(=O)C1=CN([C@@H]2O[C@H](COP(=O)(O)OP(=O)(O)OC[C@H]3O[C@@H](n4cnc5c(N)ncnc54)[C@H](O)[C@@H]3O)[C@@H](O)[C@H]2O)C=CC1; assay: purified protein; settings: varied: cofactor

B1: SMFMO (Stenotrophomonas maltophilia K279a) (protein)
chain: MDSVDVVVIGGGQSGLSAGYFLRRSGLSYVILDAEASPGGAWQHAWHSLHLFSPAGWSSIPGWPMPASQGPYPARAEVLAYLAQYEQKYALPVLRPIRVQRVSHFGERLRVVARDGRQWLARAVISATGTWGEAYTPEYQGLESFAGIQLHSAHYSTPAPFAGMRVAIIGGGNSGAQILAEVSTVAETTWITQHEPAFLADDVDGRVLFERATERWKAQQEGREPDLPPGGFGDIVMVPPVLDARARGVLAAVPPPARFSPTGMQWADGTERAFDAVIWCTGFRPALSHLKGLDLVTPQGQVEVDGSGLRALAVPSVWLLGYGDWNGMASATLIGVTRYAREAVRQVTAYCADHQDR
With B1 the Km (purified protein [1]) was 27.3 ± 5.3 M x 10^-6, the kcat (purified protein [1]) was 0.022 ± 0.002 s⁻¹ and the kcat/Km (purified protein [1]) was 805 M⁻¹ s⁻¹. For the same protein, the Km (purified protein [2]) was 23.7 ± 9.1 M x 10^-6, the kcat (purified protein [2]) was 0.029 ± 0.003 s⁻¹ and the kcat/Km (purified protein [2]) was 1220 M⁻¹ s⁻¹.
